According to patent US20200123233A1:
Values joined by “and” are separate entries in the source; they are usually repeats but may differ in a detail not shown here. Equal entries are not always repeated.

Experiments:
[1] = molecular target: Rabies virus glycoprotein G, ERA strain (attenuated vaccine strain, ATCC VR332) (Rabies virus, ERA strain (genotype 1 lyssavirus)) (UniProt P03524); assay: cell-based or functional assay
[2] = molecular target: Rabies virus glycoprotein G, Challenge Virus Standard (CVS)-11 strain (Rabies virus, strain CVS-11 (genotype 1 Lyssavirus)) (UniProt O92284); assay: cell-based or functional assay
[3] = molecular target: Rabies virus glycoprotein G, strain CVS-11 (ATCC VR 959) (Rabies virus, strain CVS-11 (genotype 1)); assay: cell-based or functional assay
[4] = molecular target: recombinant his6-tagged haemagglutinin HA1, Abcam ab53875; assay: ELISA on recombinant haemagglutinin, detection with rabbit anti-NANOBODY serum
[5] = molecular target: recombinant his-tagged HA0 trimer from H5N1 strain A/Anhui/1/2005 (Abcam, Cat. No. ab53938) (influenza A virus A/Anhui/1/2005 (H5N1)); assay: as above

B1: LG212A2 (VHH)
VHH: EVQLVESGGGLVQAGGSLRLSCAASGRTFDTYFVGWFRQAPGKERDFVAAISWSGDRTFYADSVKGRFTISRDNAKNTEYLQMNSLKPEDTAVYYCAAREYGRLYSDSEAYDYWGQGTQVTVSS
ERA neutralizing antibody titer (RFFIT): EU/mg [1]: 0.55 EU/mg | ERA neutralizing antibody titer (RFFIT): EU/ml [1]: 0.52 EU/ml | ERA neutralizing antibody titer (RFFIT): EU/µM [1]: 0.01 EU/µM | ERA neutralizing antibody titer (RFFIT): nM IC50 [1]: 3940 nM | CVS-11 neutralizing antibody titer (RFFIT), IU/mg [2]: 1.72 IU/mg | CVS-11 neutralizing antibody titer (RFFIT), IU/ml [2]: 1.62 IU/ml | CVS-11 neutralizing antibody titer (RFFIT), IU/µM [2]: 0.03 IU/µM | CVS-11 neutralizing antibody titer (RFFIT), nM IC50 [2]: 1340 nM

B2: LG212G2 (VHH)
VHH: EVQLVESGGGLVQPGGSLRLSCAASGFTFGSHDMSWVRQAPGKGSEWVSGIKSGGGSTLYADSVKGRFAISRDNAKNTLYLQMNSLKPEDTAVYYCATDLYGSTWYPGEDRGTQVTVSS
ERA neutralizing antibody titer (RFFIT): EU/mg [1]: < 0.51 EU/mg | ERA neutralizing antibody titer (RFFIT): EU/ml [1]: < 0.5 EU/ml | ERA neutralizing antibody titer (RFFIT): EU/µM [1]: < 0.01 EU/µM | ERA neutralizing antibody titer (RFFIT): nM IC50 [1]: > 7300 nM | CVS-11 neutralizing antibody titer (RFFIT), IU/mg [2]: 9.31 IU/mg | CVS-11 neutralizing antibody titer (RFFIT), IU/ml [2]: 9.12 IU/ml | CVS-11 neutralizing antibody titer (RFFIT), IU/µM [2]: 0.14 IU/µM | CVS-11 neutralizing antibody titer (RFFIT), nM IC50 [2]: 250 nM

B3: LG213H7 (VHH)
VHH: EVQLVESGGGLVQAGGSLRLSCAASGRTLSSYRMGWFRQAPGKEREFISTISWNGRSTYYADSVKGRFIFSEDNAKNTVYLQMNSLKPEDTAVYYCAAALIGGYYSDVDAWSYWGPGTQVTVSS
ERA neutralizing antibody titer (RFFIT): EU/mg [1]: 87.4 EU/mg | ERA neutralizing antibody titer (RFFIT): EU/ml [1]: 12.2 EU/ml | ERA neutralizing antibody titer (RFFIT): EU/µM [1]: 1.3 EU/µM | ERA neutralizing antibody titer (RFFIT): nM IC50 [1]: 25.6 nM | CVS-11 neutralizing antibody titer (RFFIT), IU/mg [2]: 12.2 IU/mg | CVS-11 neutralizing antibody titer (RFFIT), IU/ml [2]: 1.71 IU/ml | CVS-11 neutralizing antibody titer (RFFIT), IU/µM [2]: 0.18 IU/µM | CVS-11 neutralizing antibody titer (RFFIT), nM IC50 [2]: 191 nM | CVS neutralizing antibody titer: IU/mg [3]: 30.1 IU/mg and 12.6 IU/mg | CVS neutralizing antibody titer: IU/ml [3]: 4.22 IU/ml and 1.76 IU/ml | CVS neutralizing antibody titer: IU/µM [3]: 0.45 IU/µM and 0.19 IU/µM | CVS neutralizing antibody titer: nM IC50 [3]: 62.5 nM and 156 nM

B4: IV133 (VHH)
VHH: QVQLQQSGGGLVQPGGSLRLSCAASSSGFSFNPMGWYRQAPGKQRELVATMTSGGTTNYADSVKGRFTISRDNAKTTVYLQMNSLKPEDTAVYYCNARGPRRATTGWITDDYWGQGTQVTVSS
ELISA titer (NANOBODY concentration giving extinction 1) [4]: 32.5 ng/mL | ELISA titer (NANOBODY concentration giving extinction 1) [5]: 39.1 ng/mL

B5: IV156 (VHH)
VHH: QVQLQQSGGGLVQPGGSLRLSCAASRSGFSFNPMGWYRQAPGKQRELVATITSGGTTNYADSVKGRFTISTDNAKTTVFLQMNSLKPEDTAVYYCNGRGPRRGTAGWFTDDYWGQGTQVTVSS
ELISA titer (NANOBODY concentration giving extinction 1) [4]: 33 ng/mL | ELISA titer (NANOBODY concentration giving extinction 1) [5]: 51.9 ng/mL

B6: IV157 (VHH)
VHH: QVQLQQSGGGLVQPGGSLRLSCAASRSDISFNPMGWYRQAPGKQRELVATISNGGTTNYADSVKGRFTISQDNAKTTVYLQMNSLKPEDTAVYYCNGRGPRYATTGWYTDDYWGQGTQVTVSS
ELISA titer (NANOBODY concentration giving extinction 1) [4]: 9.9 ng/mL | ELISA titer (NANOBODY concentration giving extinction 1) [5]: 30.6 ng/mL

B7: IV144 (VHH)
VHH: QVQLQQSGGGLVQAGGSLRLSCAASGNIISFNPMGWHRQAPGKQRELVASITSGGSISYVDSVKGRFTISRDSAKNTIYLQMNSLKPEDTAVYFCAGEGPRRRGSTWYTDTYWGQGTQVTVSS
ELISA titer (NANOBODY concentration giving extinction 1) [4]: 34.8 ng/mL | ELISA titer (NANOBODY concentration giving extinction 1) [5]: 33.1 ng/mL

B8: IV131 (VHH)
VHH: QVQLQQSGGGLVQAGGSLRLSCAASGSGFSFNPMGWYRQAPGKQRELVASITSGGTTNYVDSVKGRFTISRGNAKNTVYLQMNSLKPEDTAVYYCAAEGPRRRGSTWYTDNYWGQGTQVTVSS
ELISA titer (NANOBODY concentration giving extinction 1) [4]: 32 ng/mL | ELISA titer (NANOBODY concentration giving extinction 1) [5]: 36.8 ng/mL

B9: LG212B2 (VHH)
VHH: EMQLVESGGGLVQAGDSLRLSCAASGDTFSWYVMAWFRQAPGKEREFVTWINRSGASTYYADSVKGRFTIFRDNDKNTVYLQMNSLKPEDTAVYYCAAGGFYGLRTTEERYDTWGQGTQVTVSS
ERA neutralizing antibody titer (RFFIT): EU/mg [1]: 2.59 EU/mg | ERA neutralizing antibody titer (RFFIT): EU/ml [1]: 1.84 EU/ml | ERA neutralizing antibody titer (RFFIT): EU/µM [1]: 0.04 EU/µM | ERA neutralizing antibody titer (RFFIT): nM IC50 [1]: 865 nM | CVS-11 neutralizing antibody titer (RFFIT), IU/mg [2]: 3.66 IU/mg | CVS-11 neutralizing antibody titer (RFFIT), IU/ml [2]: 2.6 IU/ml | CVS-11 neutralizing antibody titer (RFFIT), IU/µM [2]: 0.05 IU/µM | CVS-11 neutralizing antibody titer (RFFIT), nM IC50 [2]: 634 nM

B10: LG214E8 (VHH)
VHH: EVQLVESGGGSVQAGGSLRLSCAASGGTFNPYVMAWFRQAPGNEREFVARIRWSGGDAYYDDSVKGRFAITRDAAKNTVHLQMNSLKPEDTAVYYCAAATYGYGSYTYGGSYDLWGQGTQVTVSS
ERA neutralizing antibody titer (RFFIT): EU/mg [1]: < 0.96 EU/mg | ERA neutralizing antibody titer (RFFIT): EU/ml [1]: < 0.5 EU/ml | ERA neutralizing antibody titer (RFFIT): EU/µM [1]: < 0.02 EU/µM | ERA neutralizing antibody titer (RFFIT): nM IC50 [1]: > 3870 nM | CVS-11 neutralizing antibody titer (RFFIT), IU/mg [2]: 9.37 IU/mg | CVS-11 neutralizing antibody titer (RFFIT), IU/ml [2]: 4.87 IU/ml | CVS-11 neutralizing antibody titer (RFFIT), IU/µM [2]: 0.14 IU/µM | CVS-11 neutralizing antibody titer (RFFIT), nM IC50 [2]: 249 nM | CVS neutralizing antibody titer: IU/mg [3]: 14.2 IU/mg and 10.1 IU/mg and 6.12 IU/mg | CVS neutralizing antibody titer: IU/ml [3]: 7.38 IU/ml and 5.26 IU/ml and 3.18 IU/ml | CVS neutralizing antibody titer: IU/µM [3]: 0.21 IU/µM and 0.15 IU/µM and 0.09 IU/µM | CVS neutralizing antibody titer: nM IC50 [3]: 124 nM and 196 nM and 323 nM

B11: LG214H10 (VHH)
VHH: EVQLVESGGGSVQAGGSLRLSCAASGGTFNPYVMAWFRQAPGNEREFVARIRWSGGDAYYDDSVKGRFAITRDAAKNTVHLQMNSLKPEDTAVYYCAAATYGYGSYTYGGSYDLWGQGTQVTVSS
CVS-11 neutralizing antibody titer (RFFIT), IU/mg [2]: 8.17 IU/mg | CVS-11 neutralizing antibody titer (RFFIT), IU/ml [2]: 11.4 IU/ml | CVS-11 neutralizing antibody titer (RFFIT), IU/µM [2]: 0.12 IU/µM | CVS-11 neutralizing antibody titer (RFFIT), nM IC50 [2]: 284 nM | CVS neutralizing antibody titer: IU/mg [3]: 17.8 IU/mg | CVS neutralizing antibody titer: IU/ml [3]: 25 IU/ml | CVS neutralizing antibody titer: IU/µM [3]: 0.27 IU/µM | CVS neutralizing antibody titer: nM IC50 [3]: 111 nM

B12: IV146 (VHH)
VHH: QVQLQQSGGGLVQAGGSLRLSCAASGSSFSINAMGWYRQAPGKQRELVAAISSGGSANYADSVKGRFTISRDNAKNTVYLQMNSLKPEDTAVYYCNAGSRFNPFGSAYDYWGQGTQVTVSS
ELISA titer (NANOBODY concentration giving extinction 1) [4]: 62.9 ng/mL | ELISA titer (NANOBODY concentration giving extinction 1) [5]: 162 ng/mL

B13: IV154 (VHH)
VHH: QVQLQESGGGLVQAGGSLRLSCAASGRPFSSAAMGWFRQAPGKEREFVSAISYTGDVTRYADSVKGRFTISRDNTRNTLTLEMNSLKPEDTAVYYCAARTYAGVRAHTYDYDYWGQGTQVTVSS
ELISA titer (NANOBODY concentration giving extinction 1) [4]: > 10000 ng/mL | ELISA titer (NANOBODY concentration giving extinction 1) [5]: > 10000 ng/mL

B14: LG213E6 (VHH)
VHH: EVQLVESGGGLVQAGASLRLSCAASGSTLSRYGVGWFRQAPGKERELVASVDWSGSRTYYADSVKGRFTISRDNAKNTGYLQMNSLKPDDTAVYYCAADSSVVPGIEKYDDWGLGTQVTVSS
ERA neutralizing antibody titer (RFFIT): EU/mg [1]: 155 EU/mg | ERA neutralizing antibody titer (RFFIT): EU/ml [1]: 288 EU/ml | ERA neutralizing antibody titer (RFFIT): EU/µM [1]: 2.31 EU/µM | ERA neutralizing antibody titer (RFFIT): nM IC50 [1]: 14.4 nM | CVS-11 neutralizing antibody titer (RFFIT), IU/mg [2]: 170 IU/mg | CVS-11 neutralizing antibody titer (RFFIT), IU/ml [2]: 112 IU/ml | CVS-11 neutralizing antibody titer (RFFIT), IU/µM [2]: 2.54 IU/µM | CVS-11 neutralizing antibody titer (RFFIT), nM IC50 [2]: 13.7 nM | CVS neutralizing antibody titer: IU/mg [3]: 65.8 IU/mg and 83.8 IU/mg and 98.3 IU/mg | CVS neutralizing antibody titer: IU/ml [3]: 98.6 IU/ml and 156 IU/ml and 183 IU/ml | CVS neutralizing antibody titer: IU/µM [3]: 0.98 IU/µM and 1.25 IU/µM and 1.47 IU/µM | CVS neutralizing antibody titer: nM IC50 [3]: 33.6 nM and 23.7 nM and 20.2 nM
